Patent US9943572B2, “Synergistic glycocalyx treatment compositions and methods” (Microvascular Health Solutions, LLC, priority 2015, dated 2018)

How the values were obtained:
[1] = system: cultured endothelial cells; assay: Labeled glucosamine administered to cultured endothelial cells; assay type: cell-based
Description: Indeed, glucosamine can increase synthesis of two main constituents of the endothelial glycocalyx, namely heparan sulfate and hyaluronan. […] Thus, the addition and/or administration of glucosamine can support endothelial glycocalyx production by providing a (necessary and/or rate-limiting) component in the synthesis thereof. Accordingly, glucosamine can be or comprise a molecular precursor of endothelial glycocalyx.

endothelial glycocalyx = assay: Exogenous labeled SOD administered to mice, localization; assay type: in vivo; settings: orally and/or intravenously
Description: By so doing, the local concentration of SOD at the endothelial glycocalyx is increased, providing added or enhanced (site-directed) protection against oxygen radicals at the endothelial glycocalyx. Thus, in addition to (naturally) produced SOD, which may be synthesized and bound to the endothelium, exogenous or administered SOD can (directly) associate with (bind to) endothelial glycocalyx. Accordingly, introduction and/or administration of SOD can provide site-directed antioxidant activity at the endothelial glycocalyx.

[2] = Catalase administered to mice, concentration in blood vessels; assay type: in vivo; settings: oral and/or intravenous administration
Description: Thus, in addition to (naturally) produced […], which may be produced and secreted into the blood stream, exogenous or administered catalase can be absorbed into the blood stream and be available for oxidant scavenging at or adjacent to the endothelial glycocalyx (and SOD bound thereto). Accordingly, introduction and/or administration of catalase can also provide antioxidant activity in blood vessels and/or at the endothelial glycocalyx.

N[C@H]1C(O)O[C@H](CO)[C@@H](O)[C@@H]1O (stereo partly drawn) [glucosamine, Glucosamine]
incorporation of labeled glucosamine [1]: is incorporated in the glycocalyx

Superoxide dismutase [SOD]
localization of exogenous labeled SOD (endothelial glycocalyx): co-localizes (binds (directly) to) the endothelial glycocalyx

catalase
catalase concentrations in blood vessels [2]: increases catalase concentrations in blood vessels
